IntAct's records for PubMed 31515488

B1: "N-acyl-aromatic-L-amino acid amidohydrolase (carboxylate-forming)" (Homo sapiens), Q96HD9 (parent)
chain: MCSLPVPREPLRRVAVTGGTHGNEMSGVYLARHWLHAPAELQRASFSAVPVLANPAATSGCRRYVDHDLNRTFTSSFLNSRPTPDDPYEVTRARELNQLLGPKASGQAFDFVLDLHNTTANMGTCLIAKSSHEVFAMHLCRHLQLQYPELSCQVFLYQRSGEESYNLDSVAKNGLGLELGPQPQGVLRADIFSRMRTLVATVLDFIELFNQGTAFPAFEMEAYRPVGVVDFPRTEAGHLAGTVHPQLQDRDFQPLQPGAPIFQMFSGEDLLYEGESTVYPVFINEAAYYEKGVAFVQTEKFTFTVPAMPALTPAPSPAS
B2: MIF4G domain-containing protein (Homo sapiens), A9UHW6 (parent)
chain: MGEPSREEYKIQSFDAETQQLLKTALKDPGAVDLEKVANVIVDHSLQDCVFSKEAGRMCYAIIQAESKQAGQSVFRRGLLNRLQQEYQAREQLRARSLQGWVCYVTFICNIFDYLRVNNMPMMALVNPVYDCLFRLAQPDSLSKEEEVDCLVLQLHRVGEQLEKMNGQRMDELFVLIRDGFLLPTGLSSLAQLLLLEIIEFRAAGWKTTPAAHKYYYSEVSD
B3: MYG1 exonuclease (Homo sapiens), Q9HB07 (parent)
chain: MGHRFLRGLLTLLLPPPPLYTRHRMLGPESVPPPKRSRSKLMAPPRIGTHNGTFHCDEALACALLRLLPEYRDAEIVRTRDPEKLASCDIVVDVGGEYDPRRHRYDHHQRSFTETMSSLSPGKPWQTKLSSAGLIYLHFGHKLLAQLLGTSEEDSMVGTLYDKMYENFVEEVDAVDNGISQWAEGEPRYALTTTLSARVARLNPTWNHPDQDTEAGFKRAMDLVQEEFLQRLDFYQHSWLPARALVEEALAQRFQVDPSGEIVELAKGACPWKEHLYHLESGLSPPVAIFFVIYTDQAGQWRIQCVPKEPHSFQSRLPLPEPWRGLRDEALDQVSGIPGCIFVHASGFIGGHRTREGALSMARATLAQRSYLPQIS
partner: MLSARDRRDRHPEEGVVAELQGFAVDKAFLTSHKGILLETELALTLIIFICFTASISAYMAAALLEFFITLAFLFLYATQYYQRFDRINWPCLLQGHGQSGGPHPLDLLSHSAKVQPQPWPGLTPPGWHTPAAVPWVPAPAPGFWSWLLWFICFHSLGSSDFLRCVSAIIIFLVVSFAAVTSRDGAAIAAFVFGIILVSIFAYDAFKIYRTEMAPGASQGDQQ
B4: Isoform 1 of Destrin (Homo sapiens), P60981-1 (parent)
chain: MASGVQVADEVCRIFYDMKVRKCSTPEEIKKRKKAVIFCLSADKKCIIVEEGKEILVGDVGVTITDPFKHFVGMLPEKDCRYALYDASFETKESRKEELMFFLWAPELAPLKSKMIYASSKDAIKKKFQGIKHECQANGPEDLNRACIAEKLGGSLIVAFEGCPV
B5: Protein BANP (Homo sapiens), Q8N9N5 (parent)
chain: MMSEHDLADVVQIAVEDLSPDHPVVLENHVVTDEDEPALKRQRLEINCQDPSIKTICLRLDSIEAKLQALEATCKSLEEKLDLVTNKQHSPIQVPMVAGSPLGATQTCNKVRCVVPQTTVILNNDRQNAIVAKMEDPLSNRAPDSLENVISNAVPGRRQNTIVVKVPGQEDSHHEDGESGSEASDSVSSCGQAGSQSIGSNVTLITLNSEEDYPNGTWLGDENNPEMRVRCAIIPSDMLHISTNCRTAEKMALTLLDYLFHREVQAVSNLSGQGKHGKKQLDPLTIYGIRCHLFYKFGITESDWYRIKQSIDSKCRTAWRRKQRGQSLAVKSFSRRTPNSSSYCPSEPMMSTPPPASELPQPQPQPQALHYALANAQQVQIHQIGEDGQVQVGHLHIAQVPQGEQVQITQDSEGNLQIHHVGQDGQLLEATRIPCLLAPSVFKASSGQVLQGAQLIAVASSDPAAAGVDGSPLQGSDIQVQYVQLAPVSDHTAGAQTAEALQPTLQPEMQLEHGAIQIQ
partner: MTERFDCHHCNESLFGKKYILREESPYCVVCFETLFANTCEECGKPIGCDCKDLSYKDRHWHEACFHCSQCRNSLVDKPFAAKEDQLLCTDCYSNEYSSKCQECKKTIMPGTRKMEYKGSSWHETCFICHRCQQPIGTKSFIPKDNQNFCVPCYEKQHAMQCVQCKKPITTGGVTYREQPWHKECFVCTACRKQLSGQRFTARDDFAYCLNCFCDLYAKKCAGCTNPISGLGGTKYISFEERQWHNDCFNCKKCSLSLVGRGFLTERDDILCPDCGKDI
B6: Phospholipid scramblase 4 (Homo sapiens), Q9NRQ2 (parent)
chain: MSGVVPTAPEQPAGEMENQTKPPDPRPDAPPEYNSHFLPGPPGTAVPPPTGYPGGLPMGYYSPQQPSTFPLYQPVGGIHPVRYQPGKYPMPNQSVPITWMPGPTPMANCPPGLEYLVQLDNIHVLQHFEPLEMMTCFETNNRYDIKNNSDQMVYIVTEDTDDFTRNAYRTLRPFVLRVTDCMGREIMTMQRPFRCTCCCFCCPSARQELEVQCPPGVTIGFVAEHWNLCRAVYSIQNEKKENVMRVRGPCSTYGCGSDSVFEVKSLDGISNIGSIIRKWNGLLSAMADADHFDIHFPLDLDVKMKAMIFGACFLIDFMYFERSPPQRSR

Variants of: B1
Details: with gors2_human GORASP2, Q9H8Y8

| effect of a mutation on the interaction | Variant |
| --- | --- |
| with no effect | MCSLPVPQEPLRRVAVTGGTHGNEMSGVYLARHWLHAPAELQRASFSAVPVLANPAATSGCRRYVDHDLNRTFTSSFLNSRPTPDDPYEVTRARELNQLLGPKASGQAFDFVLDLHNTTANMGTCLIAKSSHEVFAMHLCRHLQLQYPELSCQVFLYQRSGEESYNLDSVAKNGLGLELGPQPQGVLRADIFSRMRTLVATVLDFIELFNQGTAFPAFEMEAYRPVGVVDFPRTEAGHLAGTVHPQLQDRDFQPLQPGAPIFQMFSGEDLLYEGESTVYPVFINEAAYYEKGVAFVQTEKFTFTVPAMPALTPAPSPAS [R8Q] |

Variants of: B2
Details: with hgs_human HGS

| effect of a mutation on the interaction | Variant |
| --- | --- |
| with no effect | MGEPSREEYKIQSFDAETQQLLKTALKDPGAVDLEKVANVIVDHSLQDCVFSKEAGRMCYAIIQAESKQAGQSVFRRGLLNRLQQEYQAREQLRARSLQGWVCYVTFICNIFDYLRVNNMPMMALVNPVYDCLFRLAQPDSLSKEEEVDCLVLQLHRVGKQLEKMNGQRMDELFVLIRDGFLLPTGLSSLAQLLLLEIIEFRAAGWKTTPAAHKYYYSEVSD [E160K] |

Variants of: B3
Details: with cklf5_human CMTM5, Q96DZ9

| effect of a mutation on the interaction | Variant |
| --- | --- |
| with no effect | MGHRFLRGLLTLLLPPPPLYTRHRMLGPESVPPPKRSRSKLMAPPRIGTHNGTFHCDEALACALLRLLPEYRDAEIVRTRDPEKLASCDIVVDVGGEYDPRRHRYDHHQRSFTETMSSLSPGKPWQTKLSSAGLIYLHFGHKLLAQLLGTSEEDSMVGTLYDKMYENFVEEVDAVDNGISQWAEGEPRYALTTTLSARVARLNPTWNHPDQDTEAGFKRAMDLVQEEFLQRLDFYQHSWLPAQALVEEALAQRFQVDPSGEIVELAKGACPWKEHLYHLESGLSPPVAIFFVIYTDQAGQWRIQCVPKEPHSFQSRLPLPEPWRGLRDEALDQVSGIPGCIFVHASGFIGGHRTREGALSMARATLAQRSYLPQIS [R243Q] |
| with no effect | MGHRFLRGLLTLLLPPPPLYTRHRMLGPESVPPPKRSRSKLMAPPRIGTHNGTFHCDEALACALLRLLPEYRDAEIVRTRDPEKLASCDIVVDVGGEYDPRRHRYDHHQRSFTETMSSLSPGKPWQTKLSSAGLIYLHFGHKLLAQLLGTSEEDSMVGTLYDKMYENFVEEVDAVDNGISQWAEGEPQYALTTTLSARVARLNPTWNHPDQDTEAGFKRAMDLVQEEFLQRLDFYQHSWLPARALVEEALAQRFQVDPSGEIVELAKGACPWKEHLYHLESGLSPPVAIFFVIYTDQAGQWRIQCVPKEPHSFQSRLPLPEPWRGLRDEALDQVSGIPGCIFVHASGFIGGHRTREGALSMARATLAQRSYLPQIS [R188Q] |

Variants of: B4
Details: with cof2_human CFL2, Q9Y281

| effect of a mutation on the interaction | Variant |
| --- | --- |
| with no effect | MASGVQVADEVCRIFYDMKVRKCSTPEEIKKRKKAVIFCLSADKKCIIVEEGKEILVGDVGVTITDPFKHFVGMLPEKDCRYALYDASFETKESRKEELMFFLWAPELAPLKSKMIYASSKDAIKKKFQGIKHECQANEPEDLNRACIAEKLGGSLIVAFEGCPV |

Variants of: B4
Details: with actb_human ACTB

| effect of a mutation on the interaction | Variant |
| --- | --- |
| with no effect | MASGVQVADEVCRIFYDMKVRKCSTPEEIKKRKKAVIFCLSADKKCIIVEEGKEILVGDVGVTITDPFKHFVGMLPEKDCRYALYDASFETKESRKEELMFFLWAPELAPLKSKMIYASSKDAIKKKFQGIKHECQANEPEDLNRACIAEKLGGSLIVAFEGCPV |

Variants of: B4
Details: with actg_human ACTG1, P63261

| effect of a mutation on the interaction | Variant |
| --- | --- |
| with no effect | MASGVQVADEVCRIFYDMKVRKCSTPEEIKKRKKAVIFCLSADKKCIIVEEGKEILVGDVGVTITDPFKHFVGMLPEKDCRYALYDASFETKESRKEELMFFLWAPELAPLKSKMIYASSKDAIKKKFQGIKHECQANEPEDLNRACIAEKLGGSLIVAFEGCPV |

Variants of: B5
Details: with fhl2_human FHL2, Q14192

| effect of a mutation on the interaction | Variant |
| --- | --- |
| with no effect | MMSEHDLADVVQIAVEDLSPDHPVVLENHVVTDEDEPALKRQRLEINCQDPSIKTICLRLDSIEAKLQALEATCKSLEEKLDLVTNKQHSPIQVPMVAGSPLGATQTCNKVRCVVPQTTVILNNDRQNAIVAKMEDPLSNRAPDSLENVISNAVPGRRQNTIVVKVPGQEDSHHEDGESGSEASDSVSSCGQAGSQSIGSNVTLITLNSEEDYPNGTWLGDENNPEMRVRCAIIPSDMLHISTNCRTAEKMALTLLDYLFHREVQAVSNLSGQGKHGKKQLDPLTIYGIRCHLFYKFGITESDWYRIKQSIDSKCRTAWRRKQRGQSLAVKSFSRRTPNSSSYCPSESMMSTPPPASELPQPQPQPQALHYALANAQQVQIHQIGEDGQVQVGHLHIAQVPQGEQVQITQDSEGNLQIHHVGQDGQLLEATRIPCLLAPSVFKASSGQVLQGAQLIAVASSDPAAAGVDGSPLQGSDIQVQYVQLAPVSDHTAGAQTAEALQPTLQPEMQLEHGAIQIQ [P348S] |

Variants of: B6
Details: with pls1_human PLSCR1, O15162
Chain of pls1_human PLSCR1, O15162 (O15162 whole entry): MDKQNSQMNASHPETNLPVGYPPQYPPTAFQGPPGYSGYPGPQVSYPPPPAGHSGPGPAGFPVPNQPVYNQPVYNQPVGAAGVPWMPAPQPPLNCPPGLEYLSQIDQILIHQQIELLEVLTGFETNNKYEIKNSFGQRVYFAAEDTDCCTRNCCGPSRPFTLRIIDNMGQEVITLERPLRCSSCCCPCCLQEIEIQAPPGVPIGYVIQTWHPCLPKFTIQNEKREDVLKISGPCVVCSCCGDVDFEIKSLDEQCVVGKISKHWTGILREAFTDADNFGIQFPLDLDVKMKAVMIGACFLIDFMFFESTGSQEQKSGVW

| effect of a mutation on the interaction | Variant |
| --- | --- |
| with no effect | MSGVVPTAPEQPAGEMENQTKPPDPRPDAPPEYNSHFLPGPPGTAVPPPTGYPGGLPMGYYSPQQPSTFPLYQPVGGIHPVRYQPGKYPMPNQSVPITWMPGPTPMSNCPPGLEYLVQLDNIHVLQHFEPLEMMTCFETNNRYDIKNNSDQMVYIVTEDTDDFTRNAYRTLRPFVLRVTDCMGREIMTMQRPFRCTCCCFCCPSARQELEVQCPPGVTIGFVAEHWNLCRAVYSIQNEKKENVMRVRGPCSTYGCGSDSVFEVKSLDGISNIGSIIRKWNGLLSAMADADHFDIHFPLDLDVKMKAMIFGACFLIDFMYFERSPPQRSR [A107S] |

Variants of: B6
Details: with mtus2_human MTUS2, Q5JR59
Chain of mtus2_human MTUS2, Q5JR59 (Q5JR59 whole entry): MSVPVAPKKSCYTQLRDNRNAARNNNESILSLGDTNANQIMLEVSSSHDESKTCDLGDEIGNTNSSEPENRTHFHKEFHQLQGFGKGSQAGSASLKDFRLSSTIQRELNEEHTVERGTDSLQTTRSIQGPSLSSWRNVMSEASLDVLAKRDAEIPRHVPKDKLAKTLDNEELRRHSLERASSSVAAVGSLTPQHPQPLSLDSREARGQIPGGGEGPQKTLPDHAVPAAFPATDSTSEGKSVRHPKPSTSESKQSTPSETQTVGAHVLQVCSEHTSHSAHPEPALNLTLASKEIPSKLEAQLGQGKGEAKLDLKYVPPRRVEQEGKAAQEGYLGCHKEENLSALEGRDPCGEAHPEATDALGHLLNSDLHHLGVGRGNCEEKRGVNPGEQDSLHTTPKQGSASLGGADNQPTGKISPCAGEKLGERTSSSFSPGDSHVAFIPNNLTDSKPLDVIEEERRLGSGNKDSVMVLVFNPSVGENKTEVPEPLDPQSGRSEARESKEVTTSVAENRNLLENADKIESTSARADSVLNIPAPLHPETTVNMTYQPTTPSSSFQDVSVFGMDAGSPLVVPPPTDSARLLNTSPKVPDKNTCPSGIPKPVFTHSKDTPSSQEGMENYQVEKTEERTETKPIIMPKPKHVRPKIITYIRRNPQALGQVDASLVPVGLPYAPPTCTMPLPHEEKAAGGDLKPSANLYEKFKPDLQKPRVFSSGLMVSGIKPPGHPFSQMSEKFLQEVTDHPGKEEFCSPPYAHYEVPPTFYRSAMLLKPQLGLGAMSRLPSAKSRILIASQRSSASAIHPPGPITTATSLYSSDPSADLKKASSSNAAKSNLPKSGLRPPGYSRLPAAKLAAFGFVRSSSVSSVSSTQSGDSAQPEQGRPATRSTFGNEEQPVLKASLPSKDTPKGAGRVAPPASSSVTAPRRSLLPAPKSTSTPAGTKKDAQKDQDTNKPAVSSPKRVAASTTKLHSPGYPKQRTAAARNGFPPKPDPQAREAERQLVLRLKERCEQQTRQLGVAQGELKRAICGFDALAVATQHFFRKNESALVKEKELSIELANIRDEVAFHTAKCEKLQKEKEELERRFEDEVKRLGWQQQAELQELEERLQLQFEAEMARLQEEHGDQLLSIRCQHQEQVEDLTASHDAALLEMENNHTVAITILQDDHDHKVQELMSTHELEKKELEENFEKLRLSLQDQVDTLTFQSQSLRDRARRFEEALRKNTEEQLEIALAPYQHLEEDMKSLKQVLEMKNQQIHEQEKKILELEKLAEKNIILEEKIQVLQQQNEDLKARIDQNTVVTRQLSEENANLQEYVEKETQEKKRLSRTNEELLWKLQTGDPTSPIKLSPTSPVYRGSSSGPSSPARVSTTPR

| effect of a mutation on the interaction | Variant |
| --- | --- |
| with no effect | MSGVVPTAPEQPAGEMENQTKPPDPRPDAPPEYNSHFLPGPPGTAVPPPTGYPGGLPMGYYSPQQPSTFPLYQPVGGIHPVRYQPGKYPMPNQSVPITWMPGPTPMSNCPPGLEYLVQLDNIHVLQHFEPLEMMTCFETNNRYDIKNNSDQMVYIVTEDTDDFTRNAYRTLRPFVLRVTDCMGREIMTMQRPFRCTCCCFCCPSARQELEVQCPPGVTIGFVAEHWNLCRAVYSIQNEKKENVMRVRGPCSTYGCGSDSVFEVKSLDGISNIGSIIRKWNGLLSAMADADHFDIHFPLDLDVKMKAMIFGACFLIDFMYFERSPPQRSR [A107S] |

Variants of: B6
Details: with nt2na_human NOTCH2NLA

| effect of a mutation on the interaction | Variant |
| --- | --- |
| with no effect | MSGVVPTAPEQPAGEMENQTKPPDPRPDAPPEYNSHFLPGPPGTAVPPPTGYPGGLPMGYYSPQQPSTFPLYQPVGGIHPVRYQPGKYPMPNQSVPITWMPGPTPMSNCPPGLEYLVQLDNIHVLQHFEPLEMMTCFETNNRYDIKNNSDQMVYIVTEDTDDFTRNAYRTLRPFVLRVTDCMGREIMTMQRPFRCTCCCFCCPSARQELEVQCPPGVTIGFVAEHWNLCRAVYSIQNEKKENVMRVRGPCSTYGCGSDSVFEVKSLDGISNIGSIIRKWNGLLSAMADADHFDIHFPLDLDVKMKAMIFGACFLIDFMYFERSPPQRSR [A107S] |
